Source: patent US20260217833A1 (APTEVO RESEARCH AND DEVELOPMENT, published 2026)
Where two headings read alike, the source gives them in different places.

T1: Cynomolgus CHOK1SV/CD40
T1 construct: also called Cyno CD40 full-length; CD4001013
T1 receptor chain: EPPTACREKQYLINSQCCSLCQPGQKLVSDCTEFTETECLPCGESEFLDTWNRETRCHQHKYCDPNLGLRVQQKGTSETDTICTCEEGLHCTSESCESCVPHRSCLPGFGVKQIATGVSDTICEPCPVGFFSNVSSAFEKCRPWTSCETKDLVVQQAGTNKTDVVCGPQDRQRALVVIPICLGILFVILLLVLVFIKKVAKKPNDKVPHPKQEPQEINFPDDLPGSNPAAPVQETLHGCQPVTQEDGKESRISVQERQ


Columns and labels:
Human PD-L1 full-length = target: T2, Human PD-L1 full-length (human, UniProt Q9NZQ7 19-290); test: MSD cell binding, CHOK1SV/human PD-L1 cells; x axis without printed unit
T2 construct: also called PDL01021; CHOK1SV/huPDL1
T2 sequence (Q9NZQ7 19-290): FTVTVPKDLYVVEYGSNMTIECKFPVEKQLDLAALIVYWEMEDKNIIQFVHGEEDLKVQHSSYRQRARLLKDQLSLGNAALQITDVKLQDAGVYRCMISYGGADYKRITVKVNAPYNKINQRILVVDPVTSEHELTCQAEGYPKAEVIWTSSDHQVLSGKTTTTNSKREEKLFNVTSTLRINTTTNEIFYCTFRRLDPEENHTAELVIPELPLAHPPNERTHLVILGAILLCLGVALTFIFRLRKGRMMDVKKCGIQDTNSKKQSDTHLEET

Cyno PD-L1 full-length = target: T3, Cyno PD-L1 full-length (cynomolgus, UniProt Q9NZQ7 19-290 (human entry)); test: MSD cell binding, CHOK1SV/cynomolgus PD-L1 cells; x axis without printed unit
T3 construct: also called PDL01022; CHOK1SV/cynoPDL1
T3 sequence (Q9NZQ7 other isoform, or with tags, fused parts or gaps): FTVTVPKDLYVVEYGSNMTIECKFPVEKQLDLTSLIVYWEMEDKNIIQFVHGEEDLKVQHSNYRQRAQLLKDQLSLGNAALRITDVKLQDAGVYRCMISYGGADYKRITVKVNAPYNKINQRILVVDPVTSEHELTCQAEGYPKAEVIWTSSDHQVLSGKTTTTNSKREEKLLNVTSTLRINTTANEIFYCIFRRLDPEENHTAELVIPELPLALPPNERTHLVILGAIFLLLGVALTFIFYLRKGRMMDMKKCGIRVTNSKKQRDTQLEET

Cynomolgus CHOK1SV/CD40 = target: T1, Cynomolgus CHOK1SV/CD40; test: flow cytometry, CHOK1SV/cynomolgus CD40 cells
human CD40 full-length [1] = target: T4, human CD40 full-length (human, UniProt P25942 21-277); test: flow cytometry, CHOK1SV/human CD40 cells
T4 construct: Also used for CD40 of Daudi cells, of CD40-expressing HEK293 cells and of the BPS CD40/NFkB HEK293 reporter cells where the row says so; also called CD4001012; CHOK1SV/CD40

human CD40 full-length [2] = target: T4, human CD40 full-length; test: flow cytometry, CHOK1SV/human CD40 cells; remark: listed apart in the source

binding result (Human PD-L1 full-length)	binding result (Cyno PD-L1 full-length)	binding result (Cynomolgus CHOK1SV/CD40)	binding result (human CD40 full-length [1])	binding result (human CD40 full-length [2])	Binder
binds	binds				PDL01033 (Fc fusion, also called 3G11HL x human IgG1 WT Fc; not shown: human IgG1 WT Fc (hinge-CH2-CH3) and its junction to the scFv) scFv: EVQLQESGPSLVKPSQTLSLTCSVTGDSITSGYWNWIRKFPGKKLEYMGYISYTGSTYYNPSLKSRISIARDTSKNQYFLQLNSVTTEDTATYYCTRGENWDGGYFDYWGQGTTLTVSSGGGGSGGGGSGGGGSGGGGSDIQMTQTTSSLSASLGDRVTISCSASQGIRNYLNWYQQKPDGTVKLLIYYTSTLHSGVPSRFSGSGSGTDYSLTISNLEPEDIATYYCQQYSKLPWTFGGGTRLEIK
binds	binds				PDL01047 (Fc fusion, not shown: a dimerising Fc or GST; small tags and cut ends, also called 7A3-2LH x human IgG1 WT Fc) scFv: DVQITQSPSYLAASPGETITINCRASKSISKYLAWYQEKPGKTNKLLIYSGSTLQSGIPSRFSGSGSGTDFTLTISSLEPEDFAMYYCQQHNEYPFTFGAGTKLEIKGGGGSGGGGSGGGGSGGGGSEVQLQESGPSLVKPSQTLSLTCSVTGDSITSGYWNWIRKFPGNRLEYMGFRSYSGTTYYNPSLKSRISITRDTSKNQYYLQLNSVTTEDTATYYCARFSDFGSSENTMDYWGQGTSVTVSS
binds	binds				PDL01048 (Fc fusion, not shown: a dimerising Fc or GST; small tags and cut ends, also called 7H11LH x human IgG1 WT Fc) scFv: DIVLTQSPASLAVSLGQRATISCRASKSVSKSGYSYLHWYQQKPGQTPKLLIYLASNLESGVPARFSGSGSGTDFTLNIHPVEEEDAATYYCQHSWELPYTFGGGTKLEIKGGGGSGGGGSGGGGSGGGGSEVQLQESGPSLVKPSQTLSLTCSVTGDSITSGYWNWIRKFPGKKLEYMGYISYTGSTYYNPSLKSRISIARDTSKNQYFLQLNSVTTEDTATYYCTRGENWDGGYFDYWGQGTTLTVSS
binds	binds				PDL01049 (10B2LH x human IgG1 WT Fc) (Fc fusion, not shown: human IgG1 WT Fc) DIQMTQTTSSLSASLGDRVTISCRASQDIRNYLNWYQQKPDGTVKLLIYYTSRLQSGVPSRFSGSGSGTDYSLTITTLEQEDFATYFCQQGNMFPYTFGGGTKLEIKGGGGSGGGGSGGGGSGGGGSKVQLQQSGAEVVKPGASVKLSCKASGYNLTEYIIHWVKQRSGQGLEWIGWFYPGSGSIKYNEKFKDKATLTADKSSTTVYMDLSRLTSEDSAVYFCARHGLYYGFPYWGQGTSVTVSS
binds	binds				PDL01050 (antibody, human IgG1, kappa, V domains shown, positive control; also called 5F11 chimeric mAb) VH: EVKFEESGGGLVQPGGSMKLSCFASGFTFSYYWMNWVRQSPEKGLEWIAEIRLKSNNYATHYAESVKGRFTISRDDSKSSVYLEMNNLRAEDTGIYHCTRPPIYYGNYEAYWGQGTLVTVSA VL: DIQMTQSPSSLSASLGGKVTITCKASQDINKYIAWYQHKPGKGPRLLIHYTSILQPGIPSRFSGSGSGRDYSFSISNLEPEDIATYYCLQYDNLRTFGGGTKLEIKR
binds	binds				PDL01051 (antibody, human IgG1, kappa, V domains shown, positive control; also called 7A3 chimeric mAb) VH: EVQLQESGPSLVKPSQTLSLTCSVTGDSITSGYWNWIRKFPGNRLEYMGFRSYSGTTYYNPSLKSRISITRDTSKNQYYLQLNSVTTEDTATYYCARFSDFGSSENTMDYWGQGTSVTVSS VL: DIVMTQSHKFMSTSVGDRVTITCKASQDVGTAVAWYQKKPGQSPKLLISWASTRHTGVPDRFTGSGSGTDFTLTISNVQSEDLADYFCQQYSSYPYTFGGGTNLEIKR
		binds	binds		PC401129 (bispecific antibody, also called L-Leu30Asn) scFv-Fc-scFv chain: DIQMTQSPSSLSASVGDRVTITCRASQDINKFLSWYQQKPGKAPKLLIHYTSSLQSGVPSRFSGSGSGTDFTLTISSLQPEDFATYYCLQYDNLYTFGQGTKLEIKGGGGSGGGGSGGGGSGGGGSEVQLVESGGGLVQPGGSLRLSCAASGFTFSDYGMAWVRQAPGKGLEWVSFITSLAYIIYYADSVKGRFTISRDNAKNSLYLQMNSLRAEDTAVYYCARNYGSSPYYFDYWGQGTLVTVSSEPKSSDKTHTCPPCPAPPAAAPSVFLFPPKPKDTLMISRTPEVTCVVVDVSHEDPEVKFNWYVDGVEVHNAKTKPREEQYNSTYRVVSVLTVLHQDWLNGKEYKCAVSNKALPAPIEKTISKAKGQPREPQVYTLPPSRDELTKNQVSLTCLVKGFYPSDIAVEWESNGQPENNYKTTPPVLDSDGSFFLYSKLTVDKSRWQQGNVFSCSVMHEALHNHYTQKSLSLSPGGGGSPSDIQMTQSPSSVSASVGDRVTITCRASQSLNFSVNQKNYLAWYQQKPGKAPKLLIYWASSLQSGVPSRFSGSGSGTDFTLTISSLQPEDFATYYCQHYYSYPWTFGQGTKVEIKGGGGSGGGGSGGGGSGGGGSQVQLVQSGAEVKKPGSSVKVSCKASGYTFSTSWIEWIRQAPGQGLEWMGSILPGSGSTNYAQKFQGRVTITADTSTSTAYMELSSLRSEDTAVYYCARGDDGSYVRWYFDHWGQGTLVTVSS
binds	binds				PDL01036 (6F6HL x human IgG1 WT Fc) (Fc fusion, also called 6F6 clone PDL0136; not shown: human IgG1 WT Fc) QGQMQQSGAELVKPGASVKLSCKTSGFTFSSSYITWLKQKPGQSLEWIAWIYVGTGGISYNQKFTGKAQLTVDTSSSTAYMQFSSLTTEDSAIYYCARHGRYHWYFDVWGAGTTVTVSSGGGGSGGGGSGGGGSGGGGSDIVMTQSHKFMSTSVGDRVTITCKASQDVGTAVAWYQKKPGQSPKLLISWASTRHTGVPDRFTGSGSGTDFTLTISNVQSEDLADYFCQQYSSYPYTFGGGTNLEIK
		binds			CD4001242 (Fc fusion, also called final humanized version of 1D5) EPKSSDKTHTCPPCPAPPAAAPSVFLFPPKPKDTLMISRTPEVTCVVVDVSHEDPEVKFNWYVDGVEVHNAKTKPREEQYNSTYRVVSVLTVLHQDWLNGKEYKCAVSNKALPAPIEKTISKAKGQPREPQVYTLPPSRDELTKNQVSLTCLVKGFYPSDIAVEWESNGQPENNYKTTPPVLDSDGSFFLYSKLTVDKSRWQQGNVFSCSVMHEALHNHYTQKSLSLSPGGGGSPSDIQMTQSPSSVSASVGDRVTITCRASQSLLFSVNQKNYLAWYQQKPGKAPKLLIYWASSLQSGVPSRFSGSGSGTDFTLTISSLQPEDFATYYCQHYYSYPWTFGQGTKVEIKGGGGSGGGGSGGGGSGGGGSQVQLVQSGAEVKKPGSSVKVSCKASGYTFSTSWIEWIRQAPGQGLEWMGSILPGSGSTNYAQKFQGRVTITADTSTSTAYMELSSLRSEDTAVYYCARGDDGSYVRWYFDHWGQGTLVTVSS
binds	binds				PDL01038 (Fc fusion, also called 7A3-2HL x human IgG1 WT Fc; not shown: human IgG1 WT Fc (hinge-CH2-CH3) and its junction to the scFv) scFv: EVQLQESGPSLVKPSQTLSLTCSVTGDSITSGYWNWIRKFPGNRLEYMGFRSYSGTTYYNPSLKSRISITRDTSKNQYYLQLNSVTTEDTATYYCARFSDFGSSENTMDYWGQGTSVTVSSGGGGSGGGGSGGGGSGGGGSDVQITQSPSYLAASPGETITINCRASKSISKYLAWYQEKPGKTNKLLIYSGSTLQSGIPSRFSGSGSGTDFTLTISSLEPEDFAMYYCQQHNEYPFTFGAGTKLEIK
binds	binds				PDL01039 (Fc fusion, also called 7H11HL x human IgG1 WT Fc; not shown: human IgG1 WT Fc (hinge-CH2-CH3) and its junction to the scFv) scFv: EVQLQESGPSLVKPSQTLSLTCSVTGDSITSGYWNWIRKFPGKKLEYMGYISYTGSTYYNPSLKSRISIARDTSKNQYFLQLNSVTTEDTATYYCTRGENWDGGYFDYWGQGTTLTVSSGGGGSGGGGSGGGGSGGGGSDIVLTQSPASLAVSLGQRATISCRASKSVSKSGYSYLHWYQQKPGQTPKLLIYLASNLESGVPARFSGSGSGTDFTLNIHPVEEEDAATYYCQHSWELPYTFGGGTKLEIK
binds	binds				PDL01041 (Fc fusion, also called 2C11LH x human IgG1 WT Fc; not shown: human IgG1 WT Fc and any junction residues between scFv and hinge) scFv: DIQMTQSPASLSASVGETVTITCRASENIYSFLAWYQQKQGKSPQLLVYKAKTLTEGVPSRFSGSGSGTQFSLKINSLQPEDFGSYYCQHHYGSPPETFGGGTKVEIKGGGGSGGGGSGGGGSGGGGSDVKLVESGGGLVKPGGSLKLSCAASGFTFSSYTMSWVRQTPEKRLEWVATISSGGNYTYYPDSVKGRFTISRDNAKNTLYLQLSSLKSEDTAMYYCTRDQAYYGNLFTYWGQGTLVTVSA
binds	binds				PDL01042 (Fc fusion, also called 3G5LH x human IgG1 WT Fc; not shown: human IgG1 WT Fc (hinge-CH2-CH3) fused C-terminal to the scFv, and its junction) scFv: DIQMTQTTSSLSASLGDRVTISCSASQGIRNYLNWYQQKPDGTVKLLIYYTSTLHSGVPSRFSGSGSGTDYSLTISNLEPEDIATYYCQQYSKLPWTFGGGTRLEIKGGGGSGGGGSGGGGSGGGGSQIQLQQSGPELVKPGASVKISCKASGYTFTDYYINWVKQKPEQGLEWIGWTFPGSINTKYNEKFKGKATLTVDTSSSTAYMQLNSLTSEDTAVYFCARSPYEFDYWGQGTTLTVSS
				binds	CD4001101 (Fc fusion, CDR-grafted 1D5 scFv in scFv-hFc format; not shown: the human Fc (hinge-CH2-CH3) of the scFv-hFc format) scFv: DIQMTQSPSTLSASVGDRVTITCKSSQSLLFSVNQKNYLAWYQQKPGKAPKLLIYWASTRESGVPARFSGSGSGTEFTLTISSLQPDDFATYYCQHYYSYPWTFGQGTKVEVKGGGGSGGGGSGGGGSGGGGSQVQLVQSGAEVKKPGASVKVSCKASGYTFSTSWIEWIKQAPGQGLEWIGEILPGSGSTNYNENFRNKATFTADTSISTAYMELSRLRSDDTAVYYCARGDDGSYVRWYFDVWGQGTLVTVSS
				binds	CD4001102 (Fc fusion, As m82; not shown: the human Fc (hinge-CH2-CH3) of the scFv-hFc format) scFv: DIQMTQSPSSLSASVGDRVTITCKSSQSLLFSVNQKNYLAWYQQKPGKAPKLLIYWASTRESGVPSRFSGSGSGTDFTFTISSLQPEDIATYYCQHYYSYPWTFGGGTKVEIKGGGGSGGGGSGGGGSGGGGSQVQLVQSGAEVKKPGASVKVSCKASGYTFSTSWIEWIKQAPGQGLEWIGEILPGSGSTNYNENFRNKATFTADTSISTAYMELSRLRSDDTAVYYCARGDDGSYVRWYFDVWGQGTLVTVSS
